Consider four sequences from the supplement of paper PMC5998384.

For series [1], the system named is HeLa Kyoto. The series is described as follows: solubility change mitosis vs G1/S (difference of NP-40 vs SDS log2 ratios) (log2 ratio difference); higher = more soluble in mitosis.
The test system of series [2] is HeLa Kyoto. Nature of the series: thermal stability score vs G1/S (z-score of summed log2 fold changes over temperatures); higher = more thermally stable than in G1/S.
Series [3] has as its system HeLa Kyoto. Nature of the series: melting temperature (median over replicates), in situ; higher = more thermally stable.
Series [4] concerns HeLa Kyoto. Nature of the series: solubility in G1/S (NP-40 vs SDS abundance) (log2 ratio); higher = more soluble. The note with it: cell cycle stage: G1/S.
[5] abbreviates: cell cycle stage: early G1 (4.5 h after nocodazole release).
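Throughout, for melting temperature (median over replicates), in situ: HeLa Kyoto cells synchronized by double thymidine or nocodazole block, proteins quantified by TMT10plex mass spectrometry, three independent biological replicates.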
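Throughout, for solubility change mitosis vs G1/S (difference of NP-40 vs SDS log2 ratios): synchronized HeLa Kyoto cells (double thymidine block for G1/S, nocodazole release for mitosis), protein amounts in NP-40 versus SDS lysates quantified by mass spectrometry, three biological replicates.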
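Throughout, for solubility in G1/S (NP-40 vs SDS abundance): HeLa Kyoto cells arrested at G1/S by double thymidine block, proteins quantified by TMT10plex mass spectrometry in mild NP-40 versus SDS extracts, three biological replicates.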
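Throughout, for thermal stability score vs G1/S (z-score of summed log2 fold changes over temperatures): synchronized HeLa Kyoto cells, proteins quantified by TMT10plex mass spectrometry, three biological replicates, mitosis taken 0.5 h after nocodazole release, G1/S directly after double thymidine block.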

Consider “MGRAGAAAVIPGLALLWAVGLGSAAPSPPRLRLSFQELQAWHGLQTFSLERTCCYQALLVDEERGRLFVGAENHVASLNLDNISKRAKKLAWPAPVEWREECNWAGKDIGTECMNFVKLLHAYNRTHLLACGTGAFHPTCAFVEVGHRAEEPVLRLDPGRIEDGKGKSPYDPRHRAASVLVGEELYSGVAADLMGRDFTIFRSLGQRPSLRTEPHDSRWLNEPKFVKVFWIPESENPDDDKIYFFFRETAVEAAPALGRLSVSRVGQICRNDVGGQRSLVNKWTTFLKARLVCSVPGVEGDTHFDQLQDVFLLSSRDHRTPLLYAVFSTSSSIFQGSAVCVYSMNDVRRAFLGPFAHKEGPMHQWVSYQGRVPYPRPGMCPSKTFGTFSSTKDFPDDVIQFARNHPLMYNSVLPTGGRPLFLQVGANYTFTQIAADRVAAADGHYDVLFIGTDVGTVLKVISVPKGSRPSAEGLLLEELHVFEDSAAVTSMQISSKRHQLYVASRSAVAQIALHRCAAHGRVCTECCLARDPYCAWDGVACTRFQPSAKRRFRRQDVRNGDPSTLCSGDSSRPALLEHKVFGVEGSSAFLECEPRSLQARVEWTFQRAGVTAHTQVLAEERTERTARGLLLRRLRRRDSGVYLCAAVEQGFTQPLRRLSLHVLSATQAERLARAEEAAPAAPPGPKLWYRDFLQLVEPGGGGSANSLRMCRPQPALQSLPLESRRKGRNRRTHAPEPRAERGPRSATHW [SEMA3B]”, for which the “solubility change mitosis (log2)” value with HeLa Kyoto [1] is -0.384. Also, the thermal stability score in the series with HeLa Kyoto [2] (setting [5]) came out at 4.5; in the series with HeLa Kyoto [2] (cell cycle stage: mitosis), 7.7. Besides, the melting temperature in the series on HeLa Kyoto [3] (cell cycle stage: G1/S) is 55.1 °C; in the series on HeLa Kyoto [3] (cell cycle stage: mitosis) it was 57.9 °C. For the same sequence, the “solubility in G1/S (log2)” value in the series on HeLa Kyoto [4] was -0.625.

For the sequence “MGRLVAVGLLGIALALLGERLLALRNRLKASREVESVDLPHCHLIKGIEAGSEDIDILPNGLAFFSVGLKFPGLHSFAPDKPGGILMMDLKEEKPRARELRISRGFDLASFNPHGISTFIDNDDTVYLFVVNHPEFKNTVEIFKFEEAENSLLHLKTVKHELLPSVNDITAVGPAHFYATNDHYFSDPFLKYLETYLNLHWANVVYYSPNEVKVVAEGFDSANGINISPDDKYIYVADILAHEIHVLEKHTNMNLTQLKVLELDTLVDNLSIDPSSGDIWVGCHPNGQKLFVYDPNNPPSSEVLRIQNILSEKPTVTTVYANNGSVLQGSSVASVYDGKLLIGTLYHRALYCEL [PON2]”, the “solubility change mitosis (log2)” value in the series on HeLa Kyoto [1] is -0.101. Further, the thermal stability score in the series with HeLa Kyoto [2] (setting [5]) turned out to be 4.83; with HeLa Kyoto [2] (cell cycle stage: mitosis), 4.5. Further, the melting temperature in the series on HeLa Kyoto [3] (cell cycle stage: G1/S) and with HeLa Kyoto [3] (cell cycle stage: mitosis) was 53.6 °C throughout. Moreover, in the series with HeLa Kyoto [4], the “solubility in G1/S (log2)” value came to 0.315.

“MGRRRAPELYRAPFPLYALQVDPSTGLLIAAGGGGAAKTGIKNGVHFLQLELINGRLSASLLHSHDTETRATMNLALAGDILAAGQDAHCQLLRFQAHQQQGNKAEKAGSKEQGPRQRKGAAPAEKKCGAETQHEGLELRVENLQAVQTDFSSDPLQKVVCFNHDNTLLATGGTDGYVRVWKVPSLEKVLEFKAHEGEIEDLALGPDGKLVTVGRDLKASVWQKDQLVTQLHWQENGPTFSSTPYRYQACRFGQVPDQPAGLRLFTVQIPHKRLRQPPPCYLTAWDGSNFLPLRTKSCGHEVVSCLDVSESGTFLGLGTVTGSVAIYIAFSLQCLYYVREAHGIVVTDVAFLPEKGRGPELLGSHETALFSVAVDSRCQLHLLPSRRSVPVWLLLLLCVGLIIVTILLLQSAFPGFL [PREB]”: the “solubility change mitosis (log2)” value with HeLa Kyoto [1] is -0.103. In addition, the thermal stability score is -0.808 in the series on HeLa Kyoto [2] (setting [5]) and -1.93 with HeLa Kyoto [2] (cell cycle stage: mitosis). The melting temperature amounted to 53.8 °C in the series on HeLa Kyoto [3] (cell cycle stage: G1/S) and 54.1 °C in the series with HeLa Kyoto [3] (cell cycle stage: mitosis). Further, the “solubility in G1/S (log2)” value in the series on HeLa Kyoto [4] was -0.0601.

Consider “MGRRSRGRRLQQQQRPEDAEDGAEGGGKRGEAGWEGGYPEIVKENKLFEHYYQELKIVPEGEWGQFMDALREPLPATLRITGYKSHAKEILHCLKNKYFKELEDLEVDGQKVEVPQPLSWYPEELAWHTNLSRKILRKSPHLEKFHQFLVSETESGNISRQEAVSMIPPLLLNVRPHHKILDMCAAPGSKTTQLIEMLHADMNVPFPEGFVIANDVDNKRCYLLVHQAKRLSSPCIMVVNHDASSIPRLQIDVDGRKEILFYDRILCDVPCSGDGTMRKNIDVWKKWTTLNSLQLHGLQLRIATRGAEQLAEGGRMVYSTCSLNPIEDEAVIASLLEKSEGALELADVSNELPGLKWMPGITQWKVMTKDGQWFTDWDAVPHSRHTQIRPTMFPPKDPEKLQAMHLERCLRILPHHQNTGGFFVAVLVKKSSMPWNKRQPKLQGKSAETRESTQLSPADLTEGKPTDPSKLESPSFTGTGDTEIAHATEDLENNGSKKDGVCGPPPSKKMKLFGFKEDPFVFIPEDDPLFPPIEKFYALDPSFPRMNLLTRTTEGKKRQLYMVSKELRNVLLNNSEKMKVINTGIKVWCRNNSGEEFDCAFRLAQEGIYTLYPFINSRIITVSMEDVKILLTQENPFFRKLSSETYSQAKDLAKGSIVLKYEPDSANPDALQCPIVLCGWRGKASIRTFVPKNERLHYLRMMGLEVLGEKKKEGVILTNESAASTGQPDNDVTEGQRAGEPNSPDAEEANSPDVTAGCDPAGVHPPR [NSUN2]”, for which the “solubility change mitosis (log2)” value with HeLa Kyoto [1] is -0.00496. For the same sequence, the thermal stability score in the series on HeLa Kyoto [2] (setting [5]) stood at 5.62; with HeLa Kyoto [2] (cell cycle stage: mitosis) it was 11.8. Further, the melting temperature was 46.6 °C with HeLa Kyoto [3] (cell cycle stage: G1/S) and 49.2 °C with HeLa Kyoto [3] (cell cycle stage: mitosis). In addition, the “solubility in G1/S (log2)” value in the series with HeLa Kyoto [4] worked out at 0.0447.
